Experimental findings from US20160017348A1 (published 2016) are described below.

The term Kd denotes the equilibrium constant for the complex coming apart. Low values mean a tighter complex, high ones a looser complex.

Test [1] deals with T1, H3(1-15)K9me2 peptide (UniProt P59226 2-16, dimethyl-lysine at K9).
T1 peptide: ARTKQTARKSTGGKA
Nature of the test: ITC; FIG. 3B.

The target in test [2] is T1, H3(1-15)K9me2 peptide. The experiment in a line: ITC; FIG. 3A.
Test [3] concerns the target H3K4me2. Nature of the test: ITC; FIG. 3B. Background: ITC needs no label: the signal is the heat of the interaction.
In test [4] the target is H4K20me2. The experiment in a line: ITC; FIG. 3B.

B1: SHH1 SAWADEE domain (residues 125-258) (other)
chain: ADLAFEAKSARDYAWYDVSSFLTYRVLRTGELEVRVRFSGFDNRHDEWVNVKTSVRERSIPVEPSECGRVNVGDLLLCFQEREDQALYCDGHVLNIKRGIHDHARCNCVFLVRYELDNTEESLGLERICRRPEE
Regarding B1, the dissociation constant Kd in test [1] and in test [2] was 1.9 µM throughout.

B2: SAWADEE domain (other)
chain: ADLAFEAKSARDYAWYDVSSFLTYRVLRTGELEVRVRFSGFDNRHDEWVNVKTSVRERSIPVEPSECGRVNVGDLLLCFQEREDQALYCDGHVLNIKRGIHDHARCNCVFLVRYELDNTEESLGLERICRRPEE
In the case of B2, the values for the Kd in test [3] and in test [4] were 52.1 µM and 80.6 µM, respectively.
